Each sequence was assayed on Escherichia coli TOP10 (assay: shrunken log2 fold change of peptide-encoding DNA abundance (4.5 h post-induction vs induction); higher = less antimicrobial activity (less host growth inhibition)). Settings: time post-induction: 4.5 h; library: site-saturation at positions 5, 18, 19, 20.
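Note: peptides expressed intracellularly from a pBAD plasmid library in pooled LB shake-flask culture, induced with 0.3% L-arabinose, DNA abundance read by NGS, three biological replicates, DESeq2 with apeglm shrinkage.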

Point of comparison: RRIRKRPPRLPRPRPRPHMYPRP, “shrunken log2 fold change” value -0.131. Against it:
- RRIRIRPPRLPRPRPRPRRCPRP — higher, 0.221
- RRIRTRPPRLPRPRPRPQMCPRP — within 0.2 log units, 0.0024
- RRIRWRPPRLPRPRPRPCWRPRP — within 0.2 log units, 0.0637
- RRIRYRPPRLPRPRPRPRMHPRP — within 0.2 log units, -0.156
- RRIRHRPPRLPRPRPRPVGSPRP — higher, 0.145
- RRIRKRPPRLPRPRPRPYNMPRP — lower, -0.352
- RRIRRRPPRLPRPRPRPIGKPRP — within 0.2 log units, -0.0155
- RRIRLRPPRLPRPRPRPQFEPRP — within 0.2 log units, -0.12
- RRIRGRPPRLPRPRPRPTYRPRP — higher, 0.138
- RRIRARPPRLPRPRPRPVHPPRP — higher, 0.217
- RRIRRRPPRLPRPRPRPSMRPRP — higher, 0.557
- RRIRERPPRLPRPRPRPYGHPRP — within 0.2 log units, -0.136
- RRIRRRPPRLPRPRPRPDCHPRP — higher, 0.619
- RRIRPRPPRLPRPRPRPEKCPRP — higher, 0.156
- RRIRERPPRLPRPRPRPTGRPRP — within 0.2 log units, -0.146
- RRIRNRPPRLPRPRPRPKDAPRP — within 0.2 log units, 0.0655
- RRIRKRPPRLPRPRPRPWLHPRP — higher, 0.24
- RRIRARPPRLPRPRPRPCGVPRP — higher, 0.255
- RRIRMRPPRLPRPRPRPKYNPRP — lower, -0.446
- RRIRMRPPRLPRPRPRPIDLPRP — within 0.2 log units, -0.00804
- RRIRRRPPRLPRPRPRPYQDPRP — within 0.2 log units, 0.00143
- RRIRVRPPRLPRPRPRPIMDPRP — within 0.2 log units, -0.151
- RRIRQRPPRLPRPRPRPPFGPRP — higher, 0.219
- RRIRWRPPRLPRPRPRPCKRPRP — higher, 0.118
- RRIRRRPPRLPRPRPRPFSQPRP — lower, -0.422
- RRIRQRPPRLPRPRPRPYGAPRP — within 0.2 log units, -0.0876
- RRIRWRPPRLPRPRPRPKQYPRP — within 0.2 log units, -0.266
- RRIRGRPPRLPRPRPRPYNWPRP — within 0.2 log units, -0.225
- RRIRTRPPRLPRPRPRPYAHPRP — within 0.2 log units, -0.239
- RRIRCRPPRLPRPRPRPMKDPRP — lower, -0.594
- RRIRERPPRLPRPRPRPYESPRP — within 0.2 log units, -0.0018
- RRIRYRPPRLPRPRPRPTPNPRP — higher, 0.507
- RRIRQRPPRLPRPRPRPVAIPRP — lower, -0.367
- RRIRSRPPRLPRPRPRPARAPRP — higher, 0.985
- RRIRTRPPRLPRPRPRPTFHPRP — within 0.2 log units, -0.174
- RRIRNRPPRLPRPRPRPGTWPRP — higher, 0.218
- RRIRFRPPRLPRPRPRPQHWPRP — within 0.2 log units, 0.0645
- RRIRPRPPRLPRPRPRPHEMPRP — within 0.2 log units, -0.142
- RRIRKRPPRLPRPRPRPKPTPRP — higher, 0.7
- RRIRWRPPRLPRPRPRPCHMPRP — within 0.2 log units, -0.0433
- RRIRWRPPRLPRPRPRPCPSPRP — higher, 0.0767
- RRIRRRPPRLPRPRPRPQYMPRP — within 0.2 log units, -0.234
- RRIRCRPPRLPRPRPRPKTNPRP — within 0.2 log units, 0.00906
- RRIRLRPPRLPRPRPRPHYVPRP — within 0.2 log units, -0.169
- RRIRGRPPRLPRPRPRPLPYPRP — within 0.2 log units, -0.086
- RRIRQRPPRLPRPRPRPELFPRP — within 0.2 log units, -0.0927
- RRIRYRPPRLPRPRPRPVVFPRP — lower, -0.747
- RRIRERPPRLPRPRPRPMWTPRP — within 0.2 log units, -0.306
- RRIRSRPPRLPRPRPRPKINPRP — lower, -0.424
- RRIRDRPPRLPRPRPRPQDHPRP — higher, 0.0862
- RRIRARPPRLPRPRPRPMMLPRP — within 0.2 log units, -0.00455
- RRIRCRPPRLPRPRPRPGQSPRP — within 0.2 log units, 0.0538
- RRIRHRPPRLPRPRPRPEKHPRP — within 0.2 log units, 0.0511
- RRIRMRPPRLPRPRPRPTTYPRP — within 0.2 log units, 0.0427
- RRIRHRPPRLPRPRPRPMDLPRP — within 0.2 log units, 0.00707
- RRIRGRPPRLPRPRPRPMVAPRP — higher, 1.17
- RRIRFRPPRLPRPRPRPGTMPRP — lower, -0.494
- RRIRGRPPRLPRPRPRPRHCPRP — higher, 0.764
- RRIRARPPRLPRPRPRPVWVPRP — higher, 0.321
- RRIRCRPPRLPRPRPRPEVRPRP — higher, 0.24
- RRIRHRPPRLPRPRPRPFNQPRP — within 0.2 log units, -0.0213
- RRIRERPPRLPRPRPRPRSIPRP — within 0.2 log units, 0.0163
- RRIRNRPPRLPRPRPRPNHGPRP — within 0.2 log units, -0.0113
- RRIRCRPPRLPRPRPRPYALPRP — within 0.2 log units, -0.115
- RRIRYRPPRLPRPRPRPQSPPRP — within 0.2 log units, -0.0354
- RRIRDRPPRLPRPRPRPNTIPRP — lower, -0.456
- RRIRCRPPRLPRPRPRPQAYPRP — within 0.2 log units, 0.0414
- RRIRCRPPRLPRPRPRPHRPPRP — within 0.2 log units, -0.0186
- RRIRDRPPRLPRPRPRPCKVPRP — within 0.2 log units, -0.202
- RRIRTRPPRLPRPRPRPPDMPRP — within 0.2 log units, -0.142
- RRIRFRPPRLPRPRPRPYRQPRP — lower, -0.477
- RRIRRRPPRLPRPRPRPHCRPRP — higher, 0.103
- RRIRVRPPRLPRPRPRPKWPPRP — higher, 0.4
- RRIRCRPPRLPRPRPRPILGPRP — lower, -0.378

— the supplement of paper PMC9112550, “Optimization of the antimicrobial peptide Bac7 by deep mutational scanning” (BMC Biology, 2022)
